This test addresses kallikrein. In words: enzyme inhibition kinetics, chromogenic substrate, OD 405 nm.

The molecule TSEPVCACPKMLFWVCGKDGETYTHPCIAKCHNVEVEHDGKCK (modifications not checked) [Haemadipsa sylvestris antithrombotic peptide Sylvestin] came in with a Ki of 17.8 nM. That is a double-digit nanomolar value.

What is called Ki is a measure of affinity in units of concentration, obtained from inhibition or displacement. Low readings indicate tighter binding, high ones weaker binding.

For the origin of these results see patent US20190284258A1, “HAEMADIPSA SYLVESTRIS ANTITHROMBOTIC PEPTIDE SYLVESTIN AND USE THEREOF” (priority 2016, published 2019).
